Consider 1 protein from article PMC7432094, “Flexible NAD^+ Binding in Deoxyhypusine Synthase Reflects the Dynamic Hypusine Modification of Translation Factor IF5A” (International Journal of Molecular Sciences, 2020).

The data set deals with the molecule itself. Description: crystal structure; sitting drop, 20 °C, 100 mM phosphate-citrate pH 4.8, 32% ethanol, 5% PEG 1000; four PhoDHS molecules in the asymmetric unit, dimer of dimers with point group D2.

B1: deoxyhypusine synthase from Pyrococcus horikoshii OT3 (enzyme, UniProt O50105 1-342, looked up)
chain: MKAKDIVLKKSEKIEGVEVKGPWLDDAQSLEEVVSYYYRIGFQATHLGRAIEIWRKVEEKRERGEEIRVFLGYTSNIISSGLREIIAWLVKEKKVDVIVTTAGGVEEDFIKSLKPFILGDWEVDDAELRKKGVNRIGNIFVPNDRYIEFEKYMIPFFERVLKIEEKLSRPLTASEFIYEMGRYMDEKLGKEKEKSVIYWAYKNNIPIFCPAITDGSIGDMLYFFKEERRDSRLIIDIANDIVKLNNLAITAKETASIILGGSLPKHAIINANLFRGGTDYAIYISTAVPWDGSLSGAPPREGVSWGKIKAKADYVEVWGDATLIFPILVWMVMKARGQGYAQ
notes: deoxyhypusine synthase (DHS), Pyrococcus horikoshii OT3, UniProtKB O50105, residues 1-342 (342 residues in all, 39 kDa); Homotetramer (dimer of dimers, D2); The His6 tag was removed with TEV protease at the site Glu-Asn-Leu-Tyr-Phe-Gln-Gly, so a residue of the site may remain at the N-terminus; also called PhoDHS; DHS; not shown: His6, N-terminal, cleaved
On to B1, for which the “stoichiometry N” value was 4.
